The results in this text go back to patent publication US20170209529A1 (BRIGHAM AND WOMEN S HOSPITAL, published 2017).

Bridge positions count the residues as written; N and C are the ends.

The target in experiment [1] is T1, soluble human FcRn (shFcRn) (human, UniProt P55899 24-297; P61769 21-119).
T1 construct: For crystallography it was expressed in CHOK1SV cells and deglycosylated with PNGaseF; biotinylated for phage selection; also called hFcRn/β2m; FcRn-biotin
Briefly: SPR (Biacore), immobilized shFcRn, pH 6, steady-state fit. A general note: Surface plasmon resonance follows binding to a sensor surface in real time, without labels.

Experiment [2] deals with T1, soluble human FcRn (shFcRn). Briefly: SPR (Biacore), pH 6.0.
Description: SPR analyses: SPR analyses were conducted using a Biacore 3000 or T100 instrument. Research-grade CMS sensor chips and all coupling reagents for immobilization were purchased from Biacore. All proteins were cross-linked to the dextran surface of a CM5 sensor chip by standard amine coupling chemistry as recommended by Biacore. […] Binding experiments were performed at pH 6.0 or 7.4 using 50 mM phosphate, 100 mM sodium chloride and 0.01% surfactant P20. […] Bound albumin protein was then allowed to dissociate from the chip for 5 minutes with running buffer. Any remaining albumin was removed from the chip with a 60 second injection (2 cycles) of pH 8.0 Tris-HCl regeneration buffer (1 M Tris pH 8.0) at 25 μL/min flow rate. The binding responses recorded near the end of the association phase were plotted as a function of concentration. Equilibrium dissociation constants (KD), were derived from sensorgrams using the 1:1 binding model of BlAevaluation software 4.1.
The target is the same in experiment [3]. Briefly: SPR (Biacore), Kd pH 7.4 divided by Kd pH 6.0.
The target is the same in experiment [4]. Description: SPR (Biacore), immobilized shFcRn, pH 6, steady-state fit. The source holds these as a separate data set.
Experiment [5] has the same target. Description: SPR (Biacore), immobilized shFcRn, pH 7.4.
For experiment [6] the target is unchanged. Briefly: SPR (Biacore), immobilized shFcRn, pH 6, 2 site fit.
Experiment [7] has the same target. Description: SPR (Biacore), immobilized shFcRn, pH 6.

The Kd is a measure of binding affinity in units of concentration.

T1 sequence (P55899 24-297 limits assumed, chain 1 of 2): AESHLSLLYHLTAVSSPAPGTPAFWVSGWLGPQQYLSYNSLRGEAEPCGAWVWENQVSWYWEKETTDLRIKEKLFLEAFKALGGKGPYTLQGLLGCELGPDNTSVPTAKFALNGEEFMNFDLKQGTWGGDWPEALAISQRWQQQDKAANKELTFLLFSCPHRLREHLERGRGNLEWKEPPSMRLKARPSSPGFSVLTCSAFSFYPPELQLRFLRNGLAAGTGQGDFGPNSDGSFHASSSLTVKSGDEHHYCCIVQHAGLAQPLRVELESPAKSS
T1 sequence (P61769 21-119 limits assumed, chain 2 of 2): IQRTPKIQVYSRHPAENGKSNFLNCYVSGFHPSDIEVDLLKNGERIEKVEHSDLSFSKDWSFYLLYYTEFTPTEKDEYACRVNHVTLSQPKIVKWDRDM

Ac-AGRYFCTKWKHGWCEEVG-NH2 (disulfide 6-14 (inferred)) [SYN1711] returned a Kd in experiment [1] of 1.56 µM.

Ac-RYFCTKWKHGWCEEVGT-NH2 (disulfide 4-12 (inferred)) [SYN1753] registered a dissociation constant (Kd) in experiment [2] of 0.5 µM.

Take Ac-VMKCWWDEEMLCEAF-NH2 (disulfide 4-12 (inferred)) [SYN1538]: in experiment [3], the “Kd Ratio 7.4/6.0” value was 71. Moreover, the Kd worked out at 0.267 µM in experiment [4] and 18.9 µM in experiment [5].

Turning to Ac-VMKCWWDEEMLCRYF-NH2 (disulfide 4-12 (inferred)) [SYN1539], the “Kd Ratio 7.4/6.0” value in experiment [3] was 83. Moreover, the Kd in experiment [4] was determined as 0.104 µM; in experiment [5], 8.6 µM.

Take Ac-VMKCWWDEEMLCRAV-NH2 (disulfide 4-12 (inferred); not fully specified) [SYN1540A]: the “Kd Ratio 7.4/6.0” value in experiment [3] was found to be 80. The Kd in experiment [4] was determined as 0.572 µM; in experiment [5], 45.7 µM.

As for Ac-AYFCTKWKHGWCEEV-NH2 (disulfide 4-12 (inferred)) [SYN1542], the Kd in experiment [1] came out at 13.8 µM.

As for Ac-RYFCTAWKHGWCEEV-NH2 (disulfide 4-12 (inferred)) [SYN1546], the Kd in experiment [1] was found to be 14.2 µM.

The molecule Ac-RYFCTKWKHAWCEEV-NH2 (disulfide 4-12 (inferred)) [SYN1550] had a Kd in experiment [1] of 39.4 µM.

With Ac-RYFCTKWKHGWCEAV-NH2 (disulfide 4-12 (inferred)) [SYN1553], in experiment [1], the Kd turned out to be 9.5 µM.

With Ac-RYFCTKWAHGWCEEV-NH2 (disulfide 4-12 (inferred)) [SYN1548], in experiment [1], the affinity, expressed as Kd, was 9.3 µM.

The molecule Ac-RAFCTKWKHGWCEEV-NH2 (disulfide 4-12 (inferred)) [SYN1543] gave a Kd in experiment [1] of 67.5 µM.

In turn, Ac-RYFCAKWKHGWCEEV-NH2 (disulfide 4-12 (inferred)) [SYN1545] came in with a Kd in experiment [1] of 9.3 µM.

Ac-RYFCTKWKAGWCEEV-NH2 (disulfide 4-12 (inferred)) [SYN1549] returned a Kd in experiment [1] of 27.4 µM.

Ac-RYACTKWKHGWCEEV-NH2 (disulfide 4-12 (inferred)) [SYN1544] gave a Kd in experiment [1] of 7.7 µM.

Ac-YMACKWDDGFSCEYV-NH2 (disulfide 4-12 (inferred)) [SYN1146]: the Kd in experiment [6] came to 0.25 µM; in experiment [5] it was 8.6 µM. Further, in experiment [3], the “Kd Ratio 7.4/6.0” value came out at 34.4.

Ac-YMTCKWDAGFSCEYV-NH2 (disulfide 4-12 (inferred)) [SYN1150]: the Kd in experiment [6] is 0.18 µM; in experiment [5], 0.4 µM. Besides, the “Kd Ratio 7.4/6.0” value in experiment [3] worked out at 2.2.

Ac-YMTCKADDGFSCEYV-NH2 (disulfide 4-12 (inferred)) [SYN1148]: the binding result in experiment [7] is recorded as “no binding”.

Take Ac-YMTCKWDDGASCEYV-NH2 (disulfide 4-12 (inferred)) [SYN1152]: in experiment [7], the binding result is listed as “no binding”.

Take YMTCKWDDGFSXEYV (N-terminal acetyl; C-terminal amide; Pen (penicillamine) at position 12) [SYN1168]: the Kd in experiment [7] was 1.94 µM.

As for Ac-AGRYFCTKWKHGWCEEVGTGGG-NH2 (disulfide 6-14 (inferred)) [SYN1707], in experiment [1], the Kd worked out at 0.49 µM.

Ac-YMTCKWDDGFSCEY-NH2 (disulfide 4-12 (inferred)) [SYN1164] registered a Kd in experiment [7] of 0.57 µM.

For the molecule Ac-CKWDDGFSCEYV-NH2 (disulfide 1-9 (inferred)) [SYN1163], in experiment [7], the binding result is recorded as “no binding”.

Ac-YMTCKWDDGFSCE-NH2 (disulfide 4-12 (inferred)) [SYN1165]: the Kd in experiment [7] was 40.3 µM.

In turn, Ac-GRYFCTKWKHGWCEEVGTGGGK-NH2 (disulfide 5-13 (inferred)) [SYN1705] showed a Kd in experiment [1] of 0.84 µM.

As to Ac-AGRYFCTKWKHGWCEEVGTG-NH2 (disulfide 6-14 (inferred)) [SYN1709], binding in experiment [1] was characterised by a dissociation constant (Kd) of 0.68 µM.

Regarding Ac-AGRYFCTKWKHGWCEEVGT-NH2 (disulfide 6-14 (inferred)) [SYN1710], binding in experiment [1] was put at a Kd of 0.59 µM.

On to Ac-AGRYFCTKWKHGWCEEV-NH2 (disulfide 6-14 (inferred)) [SYN1712], for which the Kd in experiment [1] was 4.62 µM.

In experiment [7], YMTXKWDDGFSXEYV (N-terminal acetyl; C-terminal amide; Pen (penicillamine) at positions 4 and 12) [SYN1169] displayed a Kd of 0.87 µM.

Consider Ac-RYFCTKWKHGWCEEVGTGGGK-NH2 (disulfide 4-12 (inferred)) [SYN1706], for which, in experiment [1], the Kd came to 0.9 µM.

B1: SYN3258 (peptide)
peptide: Ac-RYFCTKWKHGWCEEVGTGGGRYFCTKWKHGWCEEVGT-NH2
modifications: disulfide 4-12, 24-32 (inferred)
notes: 37-mer, two SYN1753 units joined by GGG; also called Ac-[SYN1753]-GGG-[SYN1753]-CONH2
The molecule B1 registered a Kd in experiment [2] of 0.0036 µM.

Take YMTXKWDDGFSCEYV (N-terminal acetyl; C-terminal amide; Pen (penicillamine) at position 4) [SYN1167]: the affinity in experiment [7], expressed as Kd, was 2.03 µM.

On to Ac-VMHCFWDEEFKCDQG-NH2 (disulfide 4-12 (inferred)) [SYN1197], for which the “Kd Ratio 7.4/6.0” value in experiment [3] worked out at 84. Moreover, the Kd is 0.74 µM in experiment [4] and 62 µM in experiment [5].

Ac-VMHCFWDEEFKCDQV-NH2 (disulfide 4-12 (inferred)) [SYN1260]: the “Kd Ratio 7.4/6.0” value in experiment [3] stood at 73. Further, the figures for the Kd in experiment [4] and in experiment [5] were 0.3 µM and 22 µM, respectively.

Consider Ac-VMHCFWDEEFRCDYG-NH2 (disulfide 4-12 (inferred)) [SYN1381], for which the “Kd Ratio 7.4/6.0” value in experiment [3] is 82. For the same molecule, the Kd was 0.06 µM in experiment [4] and 4.9 µM in experiment [5].

In the case of Ac-VMHCFWDEEFKCDYG-NH2 (disulfide 4-12 (inferred)) [SYN1259], in experiment [3], the “Kd Ratio 7.4/6.0” value amounted to 132. Further, the Kd in experiment [4] worked out at 0.091 µM; in experiment [5] it was 12 µM.

In the case of Ac-VMHCFWDEAFRCDQG-NH2 (disulfide 4-12 (inferred)) [SYN1382], the “Kd Ratio 7.4/6.0” value in experiment [3] is 25. Moreover, the values for the dissociation constant Kd in experiment [4] and in experiment [5] were 4.4 µM and 112 µM, respectively.

Regarding Ac-YMHCFWDEEFKCDQG-NH2 (disulfide 4-12 (inferred)) [SYN1256], in experiment [3], the “Kd Ratio 7.4/6.0” value was 69. For the same molecule, the Kd in experiment [4] is 0.72 µM; in experiment [5] it was 50 µM.

In the case of Ac-VMHCFWDEEFKCEQG-NH2 (disulfide 4-12 (inferred)) [SYN1258], in experiment [3], the “Kd Ratio 7.4/6.0” value is 65. The Kd amounted to 0.37 µM in experiment [4] and 24 µM in experiment [5].

Ac-VMHCFWDEAFKCDQG-NH2 (disulfide 4-12 (inferred)) [SYN1216]: the “Kd Ratio 7.4/6.0” value in experiment [3] is 52. Further, the Kd in experiment [4] amounted to 3.6 µM; in experiment [5], 186 µM.

Take Ac-TCKWDDGFSCEYV-NH2 (disulfide 2-10 (inferred)) [SYN1162]: in experiment [7], the Kd came out at 97.6 µM.

Molecule Ac-AGRYFCTKWKHGWCEEVGTGG-NH2 (disulfide 6-14 (inferred)) [SYN1708] gave a Kd in experiment [1] of 0.57 µM.
